Experimental data reported in article PMC4295097.

target: meditope-enabled trastuzumab; assay: SPR

| Kd [nM] | kon [M⁻¹ s⁻¹] | Substance |
| --- | --- | --- |
| 170 | 160000 | meditope-protein L construct with zero length linker (designed binder) |
| 0.18 | – | meditope-protein L construct with six-residue linker GGPGSE (designed binder) |
| 0.18 | – | meditope-protein L construct with six-residue linker GGGGSE (designed binder) |
| 1.1 | – | meditope-protein L construct with six-residue linker PPPGPP (designed binder) |
| 1.3 | – | meditope-protein L construct with three-residue linker PSE (designed binder) |
